# Reference: US20260242478A1 (published 2026)
# Where no end group is shown, it is not given here.
# How the values were obtained:
# PSMA Fab [1] = target: T1, PSMA Fab; test: clonal phage ELISA on captured PSMA Fab pre-incubated with PSMA antigen as competitor;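 note: crude clonal phage supernatants added to wells without washing away the PSMA competitor, bound phage detected by HRP-conjugated anti-M13 antibody, reference wells received blocking buffer only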
# T1 construct: also called Anti-PSMA Fab; 006 PSMA Fab
# Protocol: (§1) Clonal phage were harvested as crude supernatants and screened via standard ELISAs. […] Prior to the addition of clonal phage. wells were incubated with blocking buffer and PSMA antigen or blocking buffer alone. Without washing or aspirating, clonal phage supernatants were then added to the wells and incubated for a short time. Wells were then washed followed by detection of bound phage using a horse radish conjugated anti-M13 antibody.
# PSMA Fab [2] = target: T1, PSMA Fab; test: clonal phage ELISA on biotinylated PSMA Fab captured on neutravidin, anti-M13 HRP detection;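 note: crude clonal phage supernatants added to wells pretreated with PSMA antigen in blocking buffer or with blocking buffer only, then briefly incubated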
# Protocol: as §1
# PSMA Fab (006 PSMA Fab) [3] = target: T2, PSMA Fab (006 PSMA Fab); test: phage binding ELISA; PSMA Fab wells pre-incubated with PSMA antigen as competitor, anti-M13 HRP detection
# T2 construct: also called Anti-PSMA Fab
# Protocol: as §1
# PSMA Fab (006 PSMA Fab) [4] = target: T2, PSMA Fab (006 PSMA Fab); test: phage binding ELISA; biotinylated PSMA Fab on neutravidin plate, clonal phage supernatant, anti-M13 HRP detection;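 note: wells were preincubated with blocking buffer either containing PSMA antigen or without it before crude phage supernatant was added, briefly incubated, then washed prior to detection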
# Protocol: as §1
# PSMA Fab [5] = target: T3, PSMA Fab; test: clonal phage ELISA on captured PSMA Fab pre-incubated with PSMA antigen as competitor, anti-M13 HRP detection;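 note: crude clonal phage supernatants tested by ELISA, wells first treated with blocking buffer plus PSMA antigen, bound phage read out via HRP-linked anti-M13 antibody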
# T3 construct: also called Anti-PSMA Fab; 006 PSMA Fab
# Protocol: as §1
# PSMA Fab [6] = target: T3, PSMA Fab; test: clonal phage ELISA on biotinylated PSMA Fab captured on neutravidin plates, anti-M13 HRP detection, blocking buffer alone
# Protocol: as §1
# PSMA Fab (006 PSMA Fab) [7] = target: T4, PSMA Fab (006 PSMA Fab); test: clonal phage ELISA on biotinylated PSMA Fab captured on neutravidin, anti-M13-HRP detection;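 note: crude clonal phage supernatants added to wells preincubated with PSMA antigen in blocking buffer or with blocking buffer alone, brief binding period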
# T4 construct: also called Anti-PSMA Fab; anti-PSMA Fab
# Protocol: as §1
# PSMA Fab (006 PSMA Fab) [8] = target: T4, PSMA Fab (006 PSMA Fab); test: clonal phage ELISA on captured PSMA Fab, wells pre-incubated with PSMA antigen as competitor
# Protocol: as §1
Binder,"Phage binding ELISA signal, Anti-PSMA Fab in presence of PSMA (PSMA Fab [1])","Phage binding ELISA signal, Anti-PSMA Fab (PSMA Fab [2])","Phage binding ELISA signal, Anti-PSMA Fab with PSMA antigen (PSMA Fab (006 PSMA Fab) [3])","Phage binding ELISA signal, Anti-PSMA Fab (PSMA Fab (006 PSMA Fab) [4])",also measured
"ADWLCRPAWMCEGL (cysteine pairing not given here; also: fused to phage pIII, fusion site not given here) [Phage-3168]",0.0589,2.02,,,
YPSMCKPLWMCQGF [Phage-3175],,,0.111,2.02,
"IQVMCRPAWMCSGF (cysteine pairing not given here; also: fused to phage pIII, orientation and linker not given here, Clonal phage of the Peptide-180 library, tested as crude supernatant; not shown: fused to pIII of the bacteriophage) [Phage-3156]",,,,,"phage binding ELISA signal (Anti-PSMA Fab, PSMA antigen present) (PSMA Fab [5]): 0.0959; Phage binding ELISA signal, Anti-PSMA Fab (PSMA Fab [6]): 2.04"
"PWIVCKPAWMCTGF (cysteine pairing not given here; also: fused to phage pIII, orientation and linker not given here, Clonal phage of the Peptide-180 library, tested as crude supernatant; not shown: fused to pIII of the bacteriophage) [Phage-3154]",,,,,"phage binding ELISA signal (Anti-PSMA Fab, PSMA antigen present) (PSMA Fab [5]): 0.118; Phage binding ELISA signal, Anti-PSMA Fab (PSMA Fab [6]): 2.04"
YEPVCRPAWMCIGF [Phage-3177],,,0.0622,2.02,
MDRMCVPEWMCYVF [Phage-3173],,,0.0741,2.02,
VTAKCVPEWMCTGF [Phage-3174],,,0.0968,2.02,
"LVRVCTPMWMCQGF (cysteine pairing not given here; also: fused to phage pIII, fusion site not given here) [Phage-3166]",0.058,2.03,,,
"ETALCRPLWMCDWL (cysteine pairing not given here; also: fused to phage pIII, fusion site not given here) [Phage-3162]",0.0692,2.03,,,
MVRLCEPEWMCTGF [Phage-3184],,,0.116,2.01,
"DIHLCTPNWMCSGF (cysteine pairing not given here; also: fused to phage pIII, fusion site not given here) [Phage-3163]",0.0738,2.03,,,
"LALRCEPSWMCLGF (cysteine pairing not given here; also: fused to phage pIII, orientation and linker not given here) [Phage-3160]",0.112,2.03,,,
"QMPMCRPAWMCMGF (cysteine pairing not given here; also: fused to phage pIII, orientation and linker not given here) [Phage-3157]",0.105,2.04,,,
EGAICKPEWMCKGF [Phage-3183],,,0.0737,2.01,
IQILCTPTWMCVGF [Phage-3182],,,0.0781,2.01,
GVSMCIPAWMCQGF [Phage-3181],,,0.0737,2.01,
YEQACQPPWMCLGF [Phage-3178],,,0.0671,2.02,

Binder,"Phage binding ELISA signal, Anti-PSMA Fab in presence of PSMA (PSMA Fab [1])","Phage binding ELISA signal, Anti-PSMA Fab (PSMA Fab [2])","Phage binding ELISA signal, Anti-PSMA Fab with PSMA antigen (PSMA Fab (006 PSMA Fab) [3])","Phage binding ELISA signal, Anti-PSMA Fab (PSMA Fab (006 PSMA Fab) [4])",also measured
"GEVFCIPAWMCAGF (cysteine pairing not given here; also: fused to phage pIII, fusion site not given here) [Phage-3171]",,,0.107,2.02,
VTRMCVPEWMCSGI [Phage-3176],,,0.0628,2.02,
"EVKFCKPAWMCTGF (cysteine pairing not given here; also: fused to phage pIII, fusion site not given here) [Phage-3170]",0.0863,2.02,,,
"NVHYCVPAWMCNGF (cysteine pairing not given here; also: fused to phage pIII, fusion site not given here) [Phage-3165]",0.163,2.03,,,
"VEKLCKPEWMCMGF (cysteine pairing not given here; also: fused to phage pIII, fusion site not given here) [Phage-3169]",0.0909,2.02,,,
"VSSMCKPAWMCSGF (cysteine pairing not given here; also: fused to phage pIII, orientation and linker not given here, Clonal phage of the Peptide-180 library, tested as crude supernatant; not shown: fused to pIII of the bacteriophage) [Phage-3155]",,,,,"phage binding ELISA signal (Anti-PSMA Fab, PSMA antigen present) (PSMA Fab [5]): 0.0629; Phage binding ELISA signal, Anti-PSMA Fab (PSMA Fab [6]): 2.04"
YMMICRPAWMCSGL [Phage-3179],,,0.116,2.01,
"TYPKCIPPWMCTGF (cysteine pairing not given here; also: fused to phage pIII, fusion site not given here) [Phage-3167]",0.115,2.03,,,
"MDKICSPMWMCLGF (cysteine pairing not given here; also: fused to phage pIII, fusion site not given here) [Phage-3164]",0.0702,2.03,,,
"IEKWCFPMWMCEGF (peptide, not shown: large carriers, cysteine pairing not given here; also: fused to phage pIII, junction sequence not given here, Clonal phage of the Peptide-180 library, tested as crude supernatant) [Phage-3185]",,,,,"Phage binding ELISA signal, Anti-PSMA Fab (PSMA Fab (006 PSMA Fab) [7]): 2.01; Phage binding ELISA signal, Anti-PSMA Fab in presence of PSMA antigen (PSMA Fab (006 PSMA Fab) [8]): 0.0806"
"IVPYCMPQWMCSGF (cysteine pairing not given here; also: fused to phage pIII, orientation and linker not given here) [Phage-3158]",0.107,2.04,,,
HERECIPRWMCTGF [Phage-3180],,,0.065,2.01,
"VSELCRPAWMCHGF (peptide, not shown: large carriers, Clonal phage of the Peptide-180 library, tested as crude supernatant) [Phage-3186]",,,,,"Phage binding ELISA signal, Anti-PSMA Fab (PSMA Fab (006 PSMA Fab) [7]): 2; Phage binding ELISA signal, Anti-PSMA Fab in presence of PSMA antigen (PSMA Fab (006 PSMA Fab) [8]): 0.082"
"WMAMCKPVWMCEGF (cysteine pairing not given here; also: fused to phage pIII, orientation and linker not given here) [Phage-3159]",0.163,2.04,,,
"NHVQCVPNWMCSGF (cysteine pairing not given here; also: fused to phage pIII, fusion site not given here) [Phage-3161]",0.138,2.03,,,
ANLLCIPNWMCSGF [Phage-3172],,,0.0969,2.02,
